Test results from US20110044995A1 (KUMAMOTO UNIVERSITY, published 2011).
Values joined by “and” are separate entries in the source; they are usually repeats but may differ in a detail not shown here. Equal entries are not always repeated.

T1: envelope of HIV-2 strain ROD (HIV-2 strain ROD, UniProt P04577 20-858)
T1 sequence: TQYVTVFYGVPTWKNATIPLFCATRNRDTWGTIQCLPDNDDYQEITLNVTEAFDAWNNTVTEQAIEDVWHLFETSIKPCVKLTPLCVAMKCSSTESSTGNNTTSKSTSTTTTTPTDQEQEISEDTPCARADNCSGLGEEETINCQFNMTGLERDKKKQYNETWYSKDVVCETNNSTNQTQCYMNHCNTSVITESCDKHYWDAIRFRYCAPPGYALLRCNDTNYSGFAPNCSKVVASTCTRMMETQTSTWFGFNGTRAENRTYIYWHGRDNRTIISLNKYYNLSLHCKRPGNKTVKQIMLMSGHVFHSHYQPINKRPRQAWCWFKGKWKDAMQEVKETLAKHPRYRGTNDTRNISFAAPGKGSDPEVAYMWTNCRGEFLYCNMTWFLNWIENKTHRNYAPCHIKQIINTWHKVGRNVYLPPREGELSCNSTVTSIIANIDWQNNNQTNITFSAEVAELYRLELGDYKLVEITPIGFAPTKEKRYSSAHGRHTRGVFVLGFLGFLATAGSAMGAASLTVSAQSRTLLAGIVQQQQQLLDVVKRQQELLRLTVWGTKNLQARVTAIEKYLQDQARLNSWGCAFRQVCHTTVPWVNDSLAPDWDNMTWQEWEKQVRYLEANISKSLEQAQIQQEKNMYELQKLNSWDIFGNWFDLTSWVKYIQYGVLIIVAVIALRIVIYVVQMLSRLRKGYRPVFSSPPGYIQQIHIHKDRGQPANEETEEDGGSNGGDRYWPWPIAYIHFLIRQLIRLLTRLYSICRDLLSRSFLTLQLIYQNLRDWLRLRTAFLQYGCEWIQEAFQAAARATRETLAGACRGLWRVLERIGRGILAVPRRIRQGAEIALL

T2: V3 peptide NNT20 (HIV-1 strain JR-FL)
T2 construct: Coated on the plate at 5 µg/ml
T2 peptide: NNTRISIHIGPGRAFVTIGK


Columns and labels:
[1] = molecular target: envelope of HIV-1 strain IIIB (HIV-1 strain IIIB); experiment: cell-based or functional assay; set-up: unit not given beside the values
[2] = molecular target: envelope of HIV-1 strain 89.6 (HIV-1 strain 89.6, UniProt Q73372 32-853); experiment: cell-based or functional assay; set-up: unit not given beside the values
[3] = molecular target: envelope of HIV-1 strain SF162 (HIV-1 strain SF162, UniProt P19550 32-847); experiment: cell-based or functional assay; set-up: unit not given beside the values
[4] = molecular target: envelope of HIV-1 strain BaL (HIV-1 strain BaL); experiment: cell-based or functional assay; set-up: unit not given beside the values
[5] = molecular target: envelope of HIV-1 strain JR-FL (JRFLwt), on virus (HIV-1 strain JR-FL); experiment: cell-based or functional assay; set-up: unit not given beside the values
[6] = molecular target: envelope of HIV-1 strain JRFLGPER; experiment: cell-based or functional assay; set-up: unit not given beside the values
[7] = molecular target: envelope of HIV-1 strain YU2 (HIV-1 strain YU2, UniProt P35961 32-843); experiment: cell-based or functional assay; set-up: unit not given beside the values
[8] = molecular target: envelope of HIV-1 clinically isolated strain MTA; experiment: cell-based or functional assay; set-up: unit not given beside the values
[9] = molecular target: envelope of HIV-1 clinically isolated strain MOKW; experiment: cell-based or functional assay; set-up: unit not given beside the values
[10] = molecular target: envelope of HIV-1 clinically isolated strain YKI; experiment: cell-based or functional assay; set-up: unit not given beside the values
[11] = molecular target: envelope of HIV-1 clinically isolated strain YIS; experiment: cell-based or functional assay; set-up: unit not given beside the values
[12] = molecular target: envelope of HIV-1 clinically isolated strain MIS; experiment: cell-based or functional assay; set-up: unit not given beside the values
[13] = molecular target: envelope of HIV-1 clinically isolated strain kKGO; experiment: cell-based or functional assay; set-up: unit not given beside the values
[14] = molecular target: envelope of HIV-1 clinically isolated strain KMT; experiment: cell-based or functional assay; set-up: unit not given beside the values
[15] = molecular target: envelope of HIV-1 clinically isolated strain TR43; experiment: cell-based or functional assay; set-up: unit not given beside the values
[16] = molecular target: T1, envelope of HIV-2 strain ROD; experiment: cell-based or functional assay; set-up: unit not given beside the values
[17] = molecular target: envelope of HIV-2 strain EHO (HIV-2 strain EHO); experiment: cell-based or functional assay; set-up: unit not given beside the values
[18] = molecular target: envelope of standard panel pseudotyped virus SVPB5 (HIV-1 subtype B); experiment: cell-based or functional assay
[19] = molecular target: envelope of standard panel pseudotyped virus SVPB6 (HIV-1 subtype B); experiment: cell-based or functional assay
[20] = molecular target: envelope of standard panel pseudotyped virus SVPB8 (HIV-1 subtype B); experiment: cell-based or functional assay
[21] = molecular target: envelope of standard panel pseudotyped virus SVPB11 (HIV-1 subtype B); experiment: cell-based or functional assay
[22] = molecular target: envelope of standard panel pseudotyped virus SVPB12 (HIV-1 subtype B); experiment: cell-based or functional assay
[23] = molecular target: envelope of standard panel pseudotyped virus SVPB13 (HIV-1 subtype B); experiment: cell-based or functional assay
[24] = molecular target: envelope of standard panel pseudotyped virus SVPB14 (HIV-1 subtype B); experiment: cell-based or functional assay
[25] = molecular target: envelope of standard panel pseudotyped virus SVPB15 (HIV-1 subtype B); experiment: cell-based or functional assay
[26] = molecular target: envelope of standard panel pseudotyped virus SVPB16 (HIV-1 subtype B); experiment: cell-based or functional assay
[27] = molecular target: envelope of standard panel pseudotyped virus SVPB17 (HIV-1 subtype B); experiment: cell-based or functional assay
[28] = molecular target: envelope of standard panel pseudotyped virus SVPB18 (HIV-1 subtype B); experiment: cell-based or functional assay
[29] = molecular target: T3, monomeric gp120 (gp120-SF2; Austral Biologicals) (HIV-1 strain SF2, UniProt P03378 32-509); experiment: gp120-capture ELISA with or without 0.5 µg/ml sCD4
T3 construct: domain: gp120; also called gp120 monomer

V3 peptide NNT20 = molecular target: T2, V3 peptide NNT20; experiment: V3-peptide ELISA, NNT20 coated at 5 µg/ml
[30] = molecular target: T3, monomeric gp120 (gp120-SF2; Austral …); experiment: gp120-capture ELISA, B cell culture supernatant

| Binder | IC50, neutralizing activity (MTT assay) [1] | IC50, neutralizing activity (MTT assay) [2] | IC50, neutralizing activity (MTT assay) [3] | IC50, neutralizing activity (MTT assay) [4] | IC50, neutralizing activity (MTT assay) [5] | IC50, neutralizing activity (MTT assay) [6] | IC50, neutralizing activity (MTT assay) [7] | IC50, neutralizing activity (MTT assay) [8] | IC50, neutralizing activity (MTT assay) [9] | IC50 in TZM-bl cells [18] [mg/L] | IC50 in TZM-bl cells [19] [mg/L] | IC50 in TZM-bl cells [20] [mg/L] | IC50 in TZM-bl cells [21] [mg/L] | IC50 in TZM-bl cells [22] | IC50 in TZM-bl cells [23] | IC50 in TZM-bl cells [24] [mg/L] | IC50 in TZM-bl cells [25] [mg/L] | IC50 in TZM-bl cells [26] [mg/L] | IC50 in TZM-bl cells [27] [mg/L] | IC50 in TZM-bl cells [28] [mg/L] | also measured |
| --- | --- | --- | --- | --- | --- | --- | --- | --- | --- | --- | --- | --- | --- | --- | --- | --- | --- | --- | --- | --- | --- |
| 0.5 δ(3D6) (antibody, IgG1, V domains shown, also called 3D6(0.5 δ); 0.5 d(3D6)) VH: EVQLVESAAEVKKPGASVKVSCKASGYTFTSYGISWVRQAPGQGLQWMGWISAYNGNTKFAQEFKGRVTMTTDTSATTAYMELRSLRSDDTAVYYCARRNYYDSGSYYIRDGDYSMDVWGQGTLVTVSS VL: not shown | 2 | > 50 | 2.3 | > 50 | > 50 | 1.2 | > 50 | 0.15 | 0.42 | 1.2 | > 50 | > 50 | > 50 | > 50 mg/L | > 50 mg/L | > 50 | > 50 | > 50 | > 50 | > 50 | IC50, neutralizing activity (MTT assay) [10]: 2.4; IC50, neutralizing activity (MTT assay) [11]: 2.3; IC50, neutralizing activity (MTT assay) [12]: 0.15; IC50, neutralizing activity (MTT assay) [13]: > 50; IC50, neutralizing activity (MTT assay) [14]: 24; IC50, neutralizing activity (MTT assay) [15]: > 50; IC50, neutralizing activity (MTT assay) [16]: > 50; IC50, neutralizing activity (MTT assay) [17]: > 50; binding result [29]: binds |
| 0.5 γ(1C10) (antibody, IgG1, V domains shown, Human monoclonal from EBV-immortalised B cells of a long-term nonprogressor; also called 0.5γ(IC10); 1C10(0.5 γ)) VH: EVQLVESGGGLIQPGGSLRLSCAASGFTVSSSSMSWVRQAPEKGLEWVSVVYSGGNTYNADSVKGRFSISRDNSKNTVYLQMNSLRADDTAVYYCARDLGGGDRSSDYWGQGTLVTVSS VL: DIQLTQSPSSLSASVGDRVTITCRASESINTYLNWYQQRPGKAPKLLIYAASTLQTGVPSRFSGSGSGTLFTLTISSLQPEDLATYYCQQSFSTLPYTLGRGTKVEIKG | > 50 | 0.12 | 0.053 | 0.25 | 2.9 | 26 | 14 | 0.53 | 0.02 | 0.23 | 38 | > 150 | 35 | > 50 mg/L and 82 mg/L | > 50 mg/L and 110 mg/L | 10.5 | > 150 | 6.1 | 4.5 | 1.1 | IC50, neutralizing activity (MTT assay) [10]: 0.01; IC50, neutralizing activity (MTT assay) [11]: 0.59; IC50, neutralizing activity (MTT assay) [12]: > 50; IC50, neutralizing activity (MTT assay) [13]: 0.32; IC50, neutralizing activity (MTT assay) [14]: 24; IC50, neutralizing activity (MTT assay) [15]: > 50; IC50, neutralizing activity (MTT assay) [16]: > 50; IC50, neutralizing activity (MTT assay) [17]: > 50; binding result (V3 peptide NNT20): binds; binding result [30]: binds |
| 42F9 (antibody, IgG1, V domains shown) VH: EVQLVESGGGVVRPGGSLRLSCAASGFAFGEYGMSWVRQAPGKGLEWVSGINWNGGSTGYADSVQGRFTTSRDNAKNSLYLQMNSLRAEDTALYYCARDENYDILTGNYYYGMDVWGQGTTVTVSS VL: DIQLTQSPSSLSASVGDRVTITCRASQSISNYLNWYQQKPGKAPKLLIYAASSLQSGVPSRFSGSGSGTDFTLTISSLQPEDFATFYCQQSHSIPYTFGQGTKLEIKR | – | – | – | – | – | – | – | – | – | 4.5 | > 50 | > 50 | > 50 | > 50 mg/L | > 50 mg/L | > 50 | > 50 | 21 | > 50 | > 50 | binding result [30]: binds |
| 5G2 (antibody, IgG1, V domains shown) VH: EVQLVESGGGVVRPGNSLRLSCAASGIIFSTANLHWLRHVPGKGLEWVAIISYDGHRQYYADLVKGRFTISRDNSKNTLHLQMDGLTSDDTAVYYCAKDGADENNLGPAFDYWGRGTLVTVSS VL: EIVLTQSPATLSVSPGEGATLSCRASQSISSNLAWYQQKPGQAPRLLIYGASTGATGIPARFSGSGSGTDFTLTISRLEPEDFAIYYCQQYGSLPITFGQGTRLEIKR | > 50 | 14 | 0.91 | 5.8 | 37 | > 50 | > 50 | 0.009 | 0.012 | 10.1 | > 50 | > 50 | > 50 | > 50 mg/L | > 50 mg/L | > 50 | > 50 | > 50 | 50 | 11.5 | IC50, neutralizing activity (MTT assay) [10]: 1; IC50, neutralizing activity (MTT assay) [11]: > 50; IC50, neutralizing activity (MTT assay) [12]: > 50; IC50, neutralizing activity (MTT assay) [13]: > 50; IC50, neutralizing activity (MTT assay) [14]: > 50; IC50, neutralizing activity (MTT assay) [15]: > 50; IC50, neutralizing activity (MTT assay) [16]: > 50; IC50, neutralizing activity (MTT assay) [17]: > 50; binding result (V3 peptide NNT20): binds; binding result [29]: binds |
